According to patent US20240343770A1 (SUNSHINE LAKE PHARMA, published 2024):
Where a chain is given by its changes, count along the chain named. Names and notes keep the numbering of the source. One block for each molecule: values may come before it.

Legend:
[1] = molecular target: human GFRAL (human) (UniProt Q6UXV0); assay: cell-based or functional assay
[2] = molecular target: the molecule itself; assay: SEC of the purified Fc (self-association, aggregate state)
[3] = molecular target: the molecule itself; assay: SEC of the purified Fc (self-association)

Sequence of human GFRAL (human) (Q6UXV0 19-394): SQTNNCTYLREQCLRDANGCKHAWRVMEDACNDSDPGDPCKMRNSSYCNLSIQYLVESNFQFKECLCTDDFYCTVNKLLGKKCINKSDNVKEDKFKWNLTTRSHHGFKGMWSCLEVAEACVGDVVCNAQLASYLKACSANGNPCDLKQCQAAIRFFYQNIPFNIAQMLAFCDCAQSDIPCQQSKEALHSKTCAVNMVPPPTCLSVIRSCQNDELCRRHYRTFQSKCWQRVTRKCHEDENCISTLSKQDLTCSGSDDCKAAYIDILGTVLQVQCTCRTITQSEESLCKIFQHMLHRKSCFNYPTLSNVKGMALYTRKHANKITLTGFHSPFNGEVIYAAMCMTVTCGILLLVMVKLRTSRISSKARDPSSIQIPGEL

Relative activity ratio (native GDF15 EC50 : construct EC50), phospho-ERK1/2 HTRF in HEK293T cells expressing human GFRAL and RET [1]: 1
Molecule: native GDF15 (from UniProt Q99988 197-308) (ligand)

B1: IgG4 Fc (AA, K439E) (other)
chain: EAAGGPSVFLFPPKPKDTLMISRTPEVTCVVVDVSQEDPEVQFNWYVDGVEVHNAKTKPREEQFNSTYRVVSVLTVLHQDWLNGKEYKCKVSNKGLPSSIEKTISKAKGQPREPQVYTLPPSQEEMTKNQVSLTCLVKGFYPSDIAVEWESNGQPENNYKTTPPVLDSDGSFFLYSRLTVDKSRWQEGNVFSCSVMHEALHNHYTQESLSLSLG
notes: One Fc polypeptide
binding result [2]: binds

B2: IgG4 Fc (AA, K439D) (other)
chain: B1 chain with E207D
notes: One Fc polypeptide
binding result [2]: binds

B3: IgG4 Fc (AA, F405Q/Y407E) (other)
chain: B1 chain with F173Q, Y175E, E207K
notes: Control Fc; found as a monomer by SEC; also called monomeric Fc molecule
binding result [3]: no binding
